Test results: the nanobody polyreactivity screen of Harvey et al. (2022)

Assay: yeast display, Sf9 membrane polyspecificity reagent, FACS + sequencing; frameworks hold sequencing errors
Method in brief: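 Using colony PCR, genes from sorted yeast display clones were amplified, then sequenced on MiSeq at 2 × 250 and filtered by CDR length. The clones had been stained with 10% biotinylated, detergent-solubilized Sf9 membrane reagent for 1 hour at 4 °C and sorted by FACS into low and high (top ~1%) gates on anti-HA and streptavidin fluorescence. Polyreactivity labels come from the gate of origin.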

Row | Sequence | polyreactivity (PSR sort gate)
1 | QDQLVESGGGLVQAGGRLRLSCAAYGRIFRRYAMGWYRQAPGKEREFVAAISSGGSTYYADSVKVRFTISRDNAKKYRLFTAEQPETGRYRGLLLRCVRYDVNVYDYWGQGTQVTVSS | low polyreactivity
2 | QVQLVESGGGLVQAGGSLRLSCAASGRTFNFNTMGWYRQAPGKEREFVAAITFRGVRTYYADSVKGRFTISRDNAKNTVYLQMNSLKPEDTAVYYCAADAPRSYRFGYWGQGTQVTVSS | high polyreactivity
3 | QLQLGESGGGLVQAGASLRLSFAPSGRLFDRYAMGWYRTAPATERELVASIRSGGSTNYADSVKGRFTISRDNAKNTGYLQMNSLNPEDTAVYYCAAVLRPVRFYSGYYYWGQGTQVTVSS | high polyreactivity
4 | QVQLVESGGGLVQAGGSLRLSCAASGITFIYYAMGWYRQAPGKERELVAAISTGGSTYYADSVKGRCTISRDNAKNTVYLQRKSLKPEDTAVYFWNALRKSLRGGDYWGQGTQVTVSS | high polyreactivity
5 | QVQLVESGGGLVQAGGSLRLSCAASGSISYPYDMGWYRQAPGKDRELVAAISGSGGRTYYADSLKGRFTLSRDTAKNTVYLQMNSLKPEVTAVYYCAAERGAYRGVTFTYGYWGQGTQVTVSS | high polyreactivity
6 | QVQLVESGGGLVQAGGSLRLSCAASGGIFSWYDMGWYREAPGKERELVAAISWSGGSTYYADSVKGRFTISRDNAKHTVYLQMNSLKPEDTAVYYCAAYTADDYDYWGQGTQVTVSS | high polyreactivity
7 | QVQLVESGGGLVQAGGSLRLSCAASGRIFALNAMVWYRQAPGKERELVAAITWGGGSTYYADSVKGRFTISRDNAKNTVYLQMNSLKPEDTAVYYCAADVPSRVYTVISVEVEYWGQGTQVTVSS | low polyreactivity
8 | QVQLVESGGGLVQAGGSLRLICAASGSTFYKYNMGWYRQAPGKERELVAAISGSGTTTYYADTVKGRFTISRDNAKNTVYLQMNSLKPEDTAVYYCAARRFSPGSSGHGYWGQGTQVTVSS | high polyreactivity
9 | QVHLVQSGGGIVQEGGSLRISCAASGFTLIHYAMGWYRQAPGKERELVAGITTSGGSTYYADSVKGRFTISRDNAKNTVYLQMKSLKPEDTGVYYCADSSNTRGDYWGQGTQVTVSS | high polyreactivity
10 | QVQLGESGGGLVQAGGSLRLSCAASGFIFEHYARGWYRQAPGTDTEFVARISWGGGSTYYADSVKGRFTISRDNAKNTVYLQMNSLKPEDTAVYYCHALEGVYFGYYPSDYWGQGTQVTVAS | low polyreactivity
11 | QDQLVESGGGLVQAGGRLRLSCAASGRTFSSYAMGWYRQAPGKERELVAAISRRGSSTFYADSVKGRFTISRDNAKNTVYLQMNSLKPEDTAVYYCNADLSGQTRYDYWVQGTQVTVSS | high polyreactivity
12 | QVQLVESGGGLVQAGGSLRLSCAACGNIFGPYAMGWYRQAPGKERELVAAISFTGVSTYYADSVKGRFTISRDNAKNTVYLQMNSLKPEDTAVYYCSYYRSSTYYYWGQGTQVTVSS | high polyreactivity
13 | QVQLVESGGGLVQAGGSLRLSCAASGRTFRYYAMGWYRPATGKERELVADISSTGRTYYADSVKGRFTISRDNAKNTVYLQMNSLKPEDTAVYYCNADYFFEFDYWGQGTQVTVSS | low polyreactivity
14 | QVQLVESDGGLVQAGGSHPLSSAASGRIIYRYTMGWYRQAPGKERELVAAIRYRTSSTYYADSVKGRFTISRDNAKNTVYLQMNSLKPEDTAVYYCAAYDGLRPHRMDYWGQGTQVTVSS | low polyreactivity
15 | QVQLVESGGGLVQAGGSLRLSCAASGSISFSNAMGWYRQAPGKERELVASITSGGSTKYADSVKGRFTISRDNAKNTVFLQMNSLKPEDTAVFYCAADGYDYWGQGTQVTVSS | low polyreactivity
16 | QVQLVESGGGLVQAGGSLRLSCPASGRTFDYNAMGWYRQAPGKERELVAAITSSGGSTYYADSVKGRFTISRDNAKNTVYLQMNSLKPEDSAVYYCATDGQSPYYIYYWGQGTQVTVSS | low polyreactivity

Row | Sequence | polyreactivity (PSR sort gate)
17 | QVQLVESGGGLVQAGGSLRLSCAASGITFEVNAMGWYRQAPGKERELVARISRDGSTNYADSVKGRFTISRDNAKNTVYLQRNSLKPEDTAVYYCNAKLYRSFDYWGQGTQVTVSS | low polyreactivity
18 | QVQLVESGGGLVQAGGSLRLSCAASGSTSWYNAMGWYRQAPGKESELVAAISKSGTSTHYADSVKGRFTISRDNAKNTVYIQMNSRKPEDTAVYYCNRVRYALRRFYGTAVGYWGQGTQVTVSS | low polyreactivity
19 | QVQLVESGGGLVQAGGSLRLSSAASGRNFYANAMGWSRQAPGKERYFVAAISWGGGSTNYADSVKGRFTISRDNAKNTGYLQKNSQKPEDTAVYYCATGFYYYLTKTIPYEYEYWGLGTQVTVSS | low polyreactivity
20 | QVQLVESGGGLVQAGGSLRLSCAASGSTFGKYAMGWYRQAPGKERELVASISRSGASTYYADSVKGRFTISRDNAKNTVYLQMNSLKPEDTAVYYCNKARNPEGYWRYDYWGQGTQVTVSS | high polyreactivity
21 | QVQLVESGGGLVQAGGSLRLSCAASGSIFGKYAMGWYRQAPGKERELVAAISWSGGSTYYADSVKGRFTISRDNAKNTVYLQMNSLKPEDTAVYYCAATFRGTFRRIWTDTRAYDYWGQGTQVTVSS | high polyreactivity
22 | QVQLVESGGGLVKAGGPLRLSCAASGSIFYYNPMGWYRQAPGTERELVAAITSGDSTNYADSVKGRFTISRDNAKNSVYLQLNSLKPEDTAVYYCAADYLAALTYYRTYDYWGEGTQVTVSS | low polyreactivity
23 | QVQLVESGGGLVQAGGSLRLSSAPSGSTYYVYDMGWYRQAPGKERELVAAITSGGSTNNADSVKGRFTISRDNAKNTVYLEMKSLKPVDTAVYYCAAQGRVWDSYGYEYVQEVTRDYWGQGTQVNVSS | low polyreactivity
24 | QEQLVESGGGLVQAGGSLRLSCGASRSIVHYYAMGWYRQAPGKEREFVAAIAWGGDSTYYADSVKGRFTNSRDNANNTVYFQMYSLKPEDTAVYYCAADGPGGIGNGAGYDYWGQGTEVTVSS | low polyreactivity
25 | QVQLVESGGGLVQAGGSLRFRCAASGFTFGHYAIVWYRQAPGKERELVAAISKSGTRTYYADSVKGRFTISRDNAKNTVYLQMTSLKPEDTAVYYCATTAYNGYDYWGQGTQVTVSS | high polyreactivity
26 | QVQLVESGGGLVQAGGTLRLSCAASGSTFRRYAMGWYRHAPVKERELVAAISGRGGSTSYADSVKGRFTISRDNAKNTVYLQMNSLKPEDTAVYYCAADDKYFYPGNGYWGQGTQVTVSS | high polyreactivity
27 | QVQLVESGGGLVQAGGSLRLSGAASGFIFGSYAMGWYRQAPGKERELVAAISRSGGRTYYADSVKGRFTISRDNAKNTVYLQMNSLKPEYTAVYYCNAVGYGVFFRSSDRTKFDYWGQGTQVTVSS | high polyreactivity
28 | QVQLVESGGGLFQAGGSLRLSCAASGLIFGYYDMGWYRQAPGKERELVASISRNGGCTYYADSVKGRFTISRDNAKNTVYLQMNRLKTEDTAVYYCARTGPWARYSHGLYKSDYWGQGTQVTVAS | high polyreactivity
29 | QVQLVESGGGLVQAGGSLRLSCAASGSISTNYAMGWSRQAPGKERELVAAISSSGGSTYYADSVKGRFTISRDNAKNTVYLQMNSLKPEDTAVYYCRYKFGYWGQGTQVTVSS | high polyreactivity
30 | QVQLVETGGGLVQAGGSLRLSCAASGFTFYSYAMGWSRQSPRKEREFVAAGSTYYADSVKGRFTISRDYAKNTVYLQMNSLKPEDTAVYYCAADSYDVSRRYEYEYWVQGTQVTVSS | low polyreactivity
31 | QVQLVESGGGLVQAGGSLRLSCAASGRTFDIYAMGWYRQAPGKERELVAAISSGGSTYYADSVKGRFTISRDNAKNTVYLQMNRLKPEDTAVYYCAVRWYDQVSRRGIGYYWGQGTQVTVSS | low polyreactivity
32 | QVQLVESGGGLVQAGGSLRLICAASGRIFLNSTMGSYRQEPGKERELVADITWRGGSTYYADSVKGRFTISRDNAKNTVYLQMNSLKPEDTAVYYWNAVSVSSKRSDYWVQGTQVTVSS | low polyreactivity
